# US20140087995A1 (published 2014)
# Numbered stars: 1 amine (or outer) side, 2 acyl side, 3 side chain; on linkers, the order of the positions; unused ones are H or OH. Bridge positions count the residues as written; N and C are the ends. Side chains are listed from the residue outwards. Ends that are not written are not given here. * marks the point of attachment. C20 diacid = O=C(O)CCCCCCCCCCCCCCCCCCC(=O)*; γGlu = O=C(O)[C@H](CCC(=O)[*:2])N[*:1]; AEEA = NCCOCCOCC(=O)O
# T1: rat calcitonin receptor (rat, UniProt P32214 25-516)
# T1 construct: whole, on cells; Used as membranes prepared from the transfected cells; also called rCTR; rCT
# T1 sequence (looked up): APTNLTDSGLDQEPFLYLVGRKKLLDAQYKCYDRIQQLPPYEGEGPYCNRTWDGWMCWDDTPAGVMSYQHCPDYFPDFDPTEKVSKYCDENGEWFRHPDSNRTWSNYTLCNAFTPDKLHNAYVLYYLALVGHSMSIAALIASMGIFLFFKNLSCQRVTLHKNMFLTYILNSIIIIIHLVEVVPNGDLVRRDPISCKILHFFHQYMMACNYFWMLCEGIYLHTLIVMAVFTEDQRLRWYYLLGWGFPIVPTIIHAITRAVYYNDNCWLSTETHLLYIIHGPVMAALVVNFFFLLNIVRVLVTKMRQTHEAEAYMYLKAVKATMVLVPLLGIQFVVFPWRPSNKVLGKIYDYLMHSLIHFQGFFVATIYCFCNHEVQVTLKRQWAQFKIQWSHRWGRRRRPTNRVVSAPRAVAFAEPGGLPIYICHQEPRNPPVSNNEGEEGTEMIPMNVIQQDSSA
# T2: human calcitonin receptor (human, UniProt P30988 25-474)
# T2 construct: whole, on cells; Used as membranes prepared from the transfected cells; also called hCTR; hCT
# T2 sequence (looked up): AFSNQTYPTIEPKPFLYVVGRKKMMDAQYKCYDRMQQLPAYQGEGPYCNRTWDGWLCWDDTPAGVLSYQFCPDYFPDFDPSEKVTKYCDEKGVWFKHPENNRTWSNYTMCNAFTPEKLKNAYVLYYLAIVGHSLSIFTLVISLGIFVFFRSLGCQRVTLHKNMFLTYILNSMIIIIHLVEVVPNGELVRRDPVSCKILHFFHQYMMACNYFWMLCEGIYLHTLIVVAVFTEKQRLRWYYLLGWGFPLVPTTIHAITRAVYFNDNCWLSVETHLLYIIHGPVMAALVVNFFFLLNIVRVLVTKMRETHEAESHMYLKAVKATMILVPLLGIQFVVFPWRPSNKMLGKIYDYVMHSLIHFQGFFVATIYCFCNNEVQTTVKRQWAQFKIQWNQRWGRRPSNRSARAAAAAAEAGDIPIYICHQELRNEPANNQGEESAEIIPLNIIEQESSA
# B1: N^ε1-[2-[2-[2-[[(4S)-4-carboxy-4-(19-carboxynonadecanoylamino)butanoyl]amino]ethoxy]ethoxy]acetyl]-[Arg17,Pro21,Pro27,His34]-h-amylin (peptide)
# peptide: K([AEEA-γGlu-C20 diacid])CNTATCATQRLANFLRHSSPNFGAIPSSTNVGHNTY-NH2
# modifications: disulfide 2-7; N-terminus assumed
# SMILES: CC[C@H](C)[C@H](NC(=O)[C@H](C)NC(=O)CNC(=O)[C@H](Cc1ccccc1)NC(=O)[C@H](CC(N)=O)NC(=O)[C@@H]1CCCN1C(=O)[C@H](CO)NC(=O)[C@H](CO)NC(=O)[C@H](Cc1c[nH]cn1)NC(=O)[C@H](CCCNC(=N)N)NC(=O)[C@H](CC(C)C)NC(=O)[C@H](Cc1ccccc1)NC(=O)[C@H](CC(N)=O)NC(=O)[C@H](C)NC(=O)[C@H](CC(C)C)NC(=O)[C@H](CCCNC(=N)N)NC(=O)[C@H](CCC(N)=O)NC(=O)[C@@H](NC(=O)[C@H](C)NC(=O)[C@@H]1CSSC[C@H](NC(=O)[C@@H](N)CCCCNC(=O)COCCOCCNC(=O)CC[C@H](NC(=O)CCCCCCCCCCCCCCCCCCC(=O)O)C(=O)O)C(=O)N[C@@H](CC(N)=O)C(=O)N[C@@H]([C@@H](C)O)C(=O)N[C@@H](C)C(=O)N[C@@H]([C@@H](C)O)C(=O)N1)[C@@H](C)O)C(=O)N1CCC[C@H]1C(=O)N[C@@H](CO)C(=O)N[C@@H](CO)C(=O)N[C@H](C(=O)N[C@@H](CC(N)=O)C(=O)N[C@H](C(=O)NCC(=O)N[C@@H](Cc1c[nH]cn1)C(=O)N[C@@H](CC(N)=O)C(=O)N[C@H](C(=O)N[C@@H](Cc1ccc(O)cc1)C(N)=O)[C@@H](C)O)C(C)C)[C@@H](C)O
# notes: Analogue of human amylin; disulfide and C-terminal amide as told for h-amylin; also called compound 76
# B2: N^ε1-[2-[2-[2-[[(4S)-4-carboxy-4-(19-carboxynonadecanoylamino)butanoyl]amino]ethoxy]ethoxy]acetyl]-[His14,Arg17,Pro21,Pro27,His34]-h-amylin (peptide)
# peptide: K([AEEA-γGlu-C20 diacid])CNTATCATQRLAHFLRHSSPNFGAIPSSTNVGHNTY-NH2
# modifications: disulfide 2-7; N-terminus assumed
# SMILES: CC[C@H](C)[C@H](NC(=O)[C@H](C)NC(=O)CNC(=O)[C@H](Cc1ccccc1)NC(=O)[C@H](CC(N)=O)NC(=O)[C@@H]1CCCN1C(=O)[C@H](CO)NC(=O)[C@H](CO)NC(=O)[C@H](Cc1c[nH]cn1)NC(=O)[C@H](CCCNC(=N)N)NC(=O)[C@H](CC(C)C)NC(=O)[C@H](Cc1ccccc1)NC(=O)[C@H](Cc1c[nH]cn1)NC(=O)[C@H](C)NC(=O)[C@H](CC(C)C)NC(=O)[C@H](CCCNC(=N)N)NC(=O)[C@H](CCC(N)=O)NC(=O)[C@@H](NC(=O)[C@H](C)NC(=O)[C@@H]1CSSC[C@H](NC(=O)[C@@H](N)CCCCNC(=O)COCCOCCNC(=O)CC[C@H](NC(=O)CCCCCCCCCCCCCCCCCCC(=O)O)C(=O)O)C(=O)N[C@@H](CC(N)=O)C(=O)N[C@@H]([C@@H](C)O)C(=O)N[C@@H](C)C(=O)N[C@@H]([C@@H](C)O)C(=O)N1)[C@@H](C)O)C(=O)N1CCC[C@H]1C(=O)N[C@@H](CO)C(=O)N[C@@H](CO)C(=O)N[C@H](C(=O)N[C@@H](CC(N)=O)C(=O)N[C@H](C(=O)NCC(=O)N[C@@H](Cc1c[nH]cn1)C(=O)N[C@@H](CC(N)=O)C(=O)N[C@H](C(=O)N[C@@H](Cc1ccc(O)cc1)C(N)=O)[C@@H](C)O)C(C)C)[C@@H](C)O
# notes: Analogue of human amylin; disulfide and C-terminal amide as told for h-amylin; also called compound 80
# B3: N^ε1-[2-[2-[2-[[(4S)-4-carboxy-4-(19-carboxynonadecanoylamino)butanoyl]amino]ethoxy]ethoxy]acetyl]-[Gly14,Arg17,Pro21,Pro27,Pro31]-h-amylin (peptide)
# peptide: K([AEEA-γGlu-C20 diacid])CNTATCATQRLAGFLRHSSPNFGAIPSSTPVGSNTY-NH2
# modifications: disulfide 2-7; N-terminus assumed
# SMILES: CC[C@H](C)[C@H](NC(=O)[C@H](C)NC(=O)CNC(=O)[C@H](Cc1ccccc1)NC(=O)[C@H](CC(N)=O)NC(=O)[C@@H]1CCCN1C(=O)[C@H](CO)NC(=O)[C@H](CO)NC(=O)[C@H](Cc1c[nH]cn1)NC(=O)[C@H](CCCNC(=N)N)NC(=O)[C@H](CC(C)C)NC(=O)[C@H](Cc1ccccc1)NC(=O)CNC(=O)[C@H](C)NC(=O)[C@H](CC(C)C)NC(=O)[C@H](CCCNC(=N)N)NC(=O)[C@H](CCC(N)=O)NC(=O)[C@@H](NC(=O)[C@H](C)NC(=O)[C@@H]1CSSC[C@H](NC(=O)[C@@H](N)CCCCNC(=O)COCCOCCNC(=O)CC[C@H](NC(=O)CCCCCCCCCCCCCCCCCCC(=O)O)C(=O)O)C(=O)N[C@@H](CC(N)=O)C(=O)N[C@@H]([C@@H](C)O)C(=O)N[C@@H](C)C(=O)N[C@@H]([C@@H](C)O)C(=O)N1)[C@@H](C)O)C(=O)N1CCC[C@H]1C(=O)N[C@@H](CO)C(=O)N[C@@H](CO)C(=O)N[C@H](C(=O)N1CCC[C@H]1C(=O)N[C@H](C(=O)NCC(=O)N[C@@H](CO)C(=O)N[C@@H](CC(N)=O)C(=O)N[C@H](C(=O)N[C@@H](Cc1ccc(O)cc1)C(N)=O)[C@@H](C)O)C(C)C)[C@@H](C)O
# notes: Analogue of human amylin; disulfide and C-terminal amide as told for h-amylin; also called compound 71
# B4: N^ε1-[2-[2-[2-[[(4S)-4-carboxy-4-(19-carboxynonadecanoylamino)butanoyl]amino]ethoxy]ethoxy]acetyl]-[His14,Arg17,Pro21,Pro27,Arg34]-h-amylin (peptide)
# peptide: K([AEEA-γGlu-C20 diacid])CNTATCATQRLAHFLRHSSPNFGAIPSSTNVGRNTY-NH2
# modifications: disulfide 2-7; N-terminus assumed
# SMILES: CC[C@H](C)[C@H](NC(=O)[C@H](C)NC(=O)CNC(=O)[C@H](Cc1ccccc1)NC(=O)[C@H](CC(N)=O)NC(=O)[C@@H]1CCCN1C(=O)[C@H](CO)NC(=O)[C@H](CO)NC(=O)[C@H](Cc1c[nH]cn1)NC(=O)[C@H](CCCNC(=N)N)NC(=O)[C@H](CC(C)C)NC(=O)[C@H](Cc1ccccc1)NC(=O)[C@H](Cc1c[nH]cn1)NC(=O)[C@H](C)NC(=O)[C@H](CC(C)C)NC(=O)[C@H](CCCNC(=N)N)NC(=O)[C@H](CCC(N)=O)NC(=O)[C@@H](NC(=O)[C@H](C)NC(=O)[C@@H]1CSSC[C@H](NC(=O)[C@@H](N)CCCCNC(=O)COCCOCCNC(=O)CC[C@H](NC(=O)CCCCCCCCCCCCCCCCCCC(=O)O)C(=O)O)C(=O)N[C@@H](CC(N)=O)C(=O)N[C@@H]([C@@H](C)O)C(=O)N[C@@H](C)C(=O)N[C@@H]([C@@H](C)O)C(=O)N1)[C@@H](C)O)C(=O)N1CCC[C@H]1C(=O)N[C@@H](CO)C(=O)N[C@@H](CO)C(=O)N[C@H](C(=O)N[C@@H](CC(N)=O)C(=O)N[C@H](C(=O)NCC(=O)N[C@@H](CCCNC(=N)N)C(=O)N[C@@H](CC(N)=O)C(=O)N[C@H](C(=O)N[C@@H](Cc1ccc(O)cc1)C(N)=O)[C@@H](C)O)C(C)C)[C@@H](C)O
# notes: Analogue of human amylin; disulfide and C-terminal amide as told for h-amylin; also called compound 84
# Target: T1, rat calcitonin receptor
# Test: SPA competition with 125I-calcitonin, membranes with rat calcitonin receptor (Assay VIII)
row,Binder,IC50
1,B1,38.9 nM
2,B2,60.4 nM
3,B3,44.8 nM
4,B4,477 nM

# Target: T1, rat calcitonin receptor
# Test: ratio of binding IC50 at rat calcitonin receptor to IC50 at rat amylin receptor (reference)
row,Binder,Ratio rCT/rAmylin binding
1,B1,56.8
2,B2,36.2
3,B3,162
4,B4,94.3

# Target: T2, human calcitonin receptor
# Test: ratio of binding IC50 at human calcitonin receptor to IC50 at human amylin receptor (reference)
# Protocol: The resulting pellet was resuspended, homogenized and centrifuged (20.000 rpm, 15 min) in a buffer containing 20 mM Na-HEPES and 0.1 mM EDTA (pH 7.4, buffer 2). The resulting pellet was resuspended in buffer 2 and protein concentration was measured (BCA protein Assay, Pierce). The homogenate was kept cold during the whole procedure. The membranes were kept at −80° C. until use. The assay was performed in a 384 well Optiplate (PerkinElmer) in a total volume of 40 ul. Membranes were mixed with SPA beads. Final concentration of membranes 35 ng/μL final and SPA beads was 0.05 mg/well. Test-compounds were dissolved in DMSO and further diluted in assay buffer (50 mM Hepes, pH 7.4, 1 mM CaCl2, 5 mM MgCl₂, 0.1% OA and 0.02% Tween20). […] The final mixture was incubated with shaking at 400 rpm for 120 min at 25° C. prior to centrifugation (1500 rpm, 10 min). Samples were analyzed on TopCounter™ (Packard). The IC₅₀ was calculated using (one site binding competition analysis) GraphPad Prism5 as a measure of receptor affinity.
# Membranes were prepared in the following way; the cells were rinsed with PBS and incubated with Versene for approximately 5 min before harvesting. The cells were flushed with PBS and the cell-suspension was centrifuged for 5 min at 1000 rpm. Cells were homogenized (Ultrathurrax) in a buffer containing 20 mM Na-HEPES and 10 mM EDTA (pH 7.4) and centrifuged at 20.000 rpm for 15 min. The resulting pellet was resuspended, homogenized and centrifuged (20.000 rpm, 15 min) in a buffer containing 20 mM Na-HEPES and 0.1 mM EDTA (pH 7.4, buffer 2). The resulting pellet was resuspended in buffer 2 and protein concentration was measured (BCA protein Assay, Pierce). The homogenate was kept cold during the whole procedure. The membranes were kept at −80° C. until use. Assay was performed in a 384 well Optiplate (PerkinElmer) in a total volume of 40 ul. Membranes were mixed with SPA beads.
row,Binder,Ratio hCT/hAmylin binding
1,B1,80
2,B2,68.1
3,B3,32
4,B4,120
